First the molecules themselves.
B2: GST-ASS1 (natural protein, human, UniProt P00966 1-412, looked up)
chain: MSSKGSVVLAYSGGLDTSCILVWLKEQGYDVIAYLANIGQKEDFEEARKKALKLGAKKVFIEDVSREFVEEFIWPAIQSSALYEDRYLLGTSLARPCIARKQVEIAQREGAKYVSHGATGKGNDQVRFELSCYSLAPQIKVIAPWRMPEFYNRFKGRNDLMEYAKQHGIPIPVTPKNPWSMDENLMHISYEAGILENPKNQAPPGLYTKTQDPAKAPNTPDILEIEFKKGVPVKVTNVKDGTTHQTSLELFMYLNEVAGKHGVGRIDIVENRFIGMKSRGIYETPAGTILYHAHLDIEAFTMDREVRKIKQGLGLKFAELVYTGFWHSPECEFVRHCIAKSQERVEGKVQVSVLKGQVYILGRESPLSLYNEELVSMNVQGDYEPTDATGFININSLRLKEYHRLQSKVTAK
notes: also called recombinant GST-ASS1; source: E. coli BL21 DE3, purified

Common to all, as to settings: both partners purified
The target in the assay “GST-ASS1” is B2. In words: pull-down; purified GST-ASS1 immobilised on MagneGST Glutathione Particles; purified His-PHGDH or its truncated forms added overnight at 4 °C; washed with PBST; western blot; GST as negative control. A general note: Immunoblotting shows a protein as a band on a membrane.
Another assay has as its target T1, His-PHGDH (UniProt O43175 1-533).
T1 construct: also called PHGDH-F; full-length PHGDH; source: E. coli BL21 DE3, purified
T1 sequence (looked up): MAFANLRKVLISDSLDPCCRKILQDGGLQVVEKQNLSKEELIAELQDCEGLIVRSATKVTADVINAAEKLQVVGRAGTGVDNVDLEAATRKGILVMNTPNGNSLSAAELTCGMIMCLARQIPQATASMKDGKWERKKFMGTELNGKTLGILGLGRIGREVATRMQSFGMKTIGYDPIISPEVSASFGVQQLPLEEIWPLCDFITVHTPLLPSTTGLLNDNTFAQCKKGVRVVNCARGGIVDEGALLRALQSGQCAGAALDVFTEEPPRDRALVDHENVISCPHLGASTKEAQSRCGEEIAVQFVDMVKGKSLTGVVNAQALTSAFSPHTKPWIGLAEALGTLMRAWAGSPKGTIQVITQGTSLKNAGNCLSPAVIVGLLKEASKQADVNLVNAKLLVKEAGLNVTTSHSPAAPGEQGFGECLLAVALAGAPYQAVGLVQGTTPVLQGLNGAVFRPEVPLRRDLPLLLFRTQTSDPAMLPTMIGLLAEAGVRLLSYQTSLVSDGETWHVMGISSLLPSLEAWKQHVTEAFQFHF
The description is as above.

The target in the next assay is T2, GST-PHGDH (UniProt O43175 1-533).
T2 construct: also called recombinant GST-PHGDH; source: E. coli BL21 DE3, purified
T2 sequence (looked up): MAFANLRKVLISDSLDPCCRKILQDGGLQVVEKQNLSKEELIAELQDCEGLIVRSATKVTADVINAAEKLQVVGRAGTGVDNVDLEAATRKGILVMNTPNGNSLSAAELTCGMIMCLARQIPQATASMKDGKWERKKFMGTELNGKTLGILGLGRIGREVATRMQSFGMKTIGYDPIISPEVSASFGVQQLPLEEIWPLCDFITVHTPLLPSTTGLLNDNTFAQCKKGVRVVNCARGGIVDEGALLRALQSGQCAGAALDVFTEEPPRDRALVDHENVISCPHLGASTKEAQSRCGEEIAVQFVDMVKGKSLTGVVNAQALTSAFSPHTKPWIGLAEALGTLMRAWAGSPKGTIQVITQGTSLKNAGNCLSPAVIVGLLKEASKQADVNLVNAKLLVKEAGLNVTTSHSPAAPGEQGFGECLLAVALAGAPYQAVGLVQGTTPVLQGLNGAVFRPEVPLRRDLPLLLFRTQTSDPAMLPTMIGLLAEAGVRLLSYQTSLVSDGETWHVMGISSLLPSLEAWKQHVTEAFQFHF
In words: pull-down; purified GST-PHGDH immobilised on MagneGST Glutathione Particles; purified His-ASS1 added overnight at 4 °C; washed with PBST; western blot; GST as negative control.

B1: PHGDH N-314 (catalytic domain) (domain or fragment, UniProt O43175 1-314, looked up)
chain: MAFANLRKVLISDSLDPCCRKILQDGGLQVVEKQNLSKEELIAELQDCEGLIVRSATKVTADVINAAEKLQVVGRAGTGVDNVDLEAATRKGILVMNTPNGNSLSAAELTCGMIMCLARQIPQATASMKDGKWERKKFMGTELNGKTLGILGLGRIGREVATRMQSFGMKTIGYDPIISPEVSASFGVQQLPLEEIWPLCDFITVHTPLLPSTTGLLNDNTFAQCKKGVRVVNCARGGIVDEGALLRALQSGQCAGAALDVFTEEPPRDRALVDHENVISCPHLGASTKEAQSRCGEEIAVQFVDMVKGKSLTG
notes: also called catalytic domain of PHGDH; source: E. coli BL21 DE3, purified
On to B1, for which the binding result in the assay with GST-ASS1 is recorded as “binds”.

B2: in the assay with His-PHGDH, the binding result is on record as “binds”.

B3: His-ASS1 (natural protein, human, UniProt P00966 1-412, looked up)
chain: MSSKGSVVLAYSGGLDTSCILVWLKEQGYDVIAYLANIGQKEDFEEARKKALKLGAKKVFIEDVSREFVEEFIWPAIQSSALYEDRYLLGTSLARPCIARKQVEIAQREGAKYVSHGATGKGNDQVRFELSCYSLAPQIKVIAPWRMPEFYNRFKGRNDLMEYAKQHGIPIPVTPKNPWSMDENLMHISYEAGILENPKNQAPPGLYTKTQDPAKAPNTPDILEIEFKKGVPVKVTNVKDGTTHQTSLELFMYLNEVAGKHGVGRIDIVENRFIGMKSRGIYETPAGTILYHAHLDIEAFTMDREVRKIKQGLGLKFAELVYTGFWHSPECEFVRHCIAKSQERVEGKVQVSVLKGQVYILGRESPLSLYNEELVSMNVQGDYEPTDATGFININSLRLKEYHRLQSKVTAK
notes: also called recombinant His-ASS1; source: E. coli BL21 DE3, purified
For B3, the binding result with GST-PHGDH is “binds”.
